Assay results as given in IntAct's records for PubMed 21685921.

B1: Regulator of G-protein signaling 16 (Homo sapiens), O15492 (parent)
chain: MCRTLAAFPTTCLERAKEFKTRLGIFLHKSELGCDTGSTGKFEWGSKHSKENRNFSEDVLGWRESFDLLLSSKNGVAAFHAFLKTEFSEENLEFWLACEEFKKIRSATKLASRAHQIFEEFICSEAPKEVNIDHETHELTRMNLQTATATCFDAAQGKTRTLMEKDSYPRFLKSPAYRDLAAQASAASATLSSCSLDEPSHT
B2: Regulator of G-protein signaling 18 (Homo sapiens), Q9NS28 (parent)
chain: METTLLFFSQINMCESKEKTFFKLIHGSGKEETSKEAKIRAKEKRNRLSLLVQKPEFHEDTRSSRSGHLAKETRVSPEEAVKWGESFDKLLSHRDGLEAFTRFLKTEFSEENIEFWIACEDFKKSKGPQQIHLKAKAIYEKFIQTDAPKEVNLDFHTKEVITNSITQPTLHSFDAAQSRVYQLMEQDSYTRFLKSDIYLDLMEGRPQRPTNLRRRSRSFTCNEFQDVQSDVAIWL
B3: Regulator of G-protein signaling 4 (Homo sapiens), P49798 (parent)
chain: MCKGLAGLPASCLRSAKDMKHRLGFLLQKSDSCEHNSSHNKKDKVVICQRVSQEEVKKWAESLENLISHECGLAAFKAFLKSEYSEENIDFWISCEEYKKIKSPSKLSPKAKKIYNEFISVQATKEVNLDSCTREETSRNMLEPTITCFDEAQKKIFNLMEKDSYRRFLKSRFYLDLVNPSSCGAEKQKGAKSSADCASLVPQCA
B4: Regulator of G-protein signaling 17 (Homo sapiens), Q9UGC6 (parent)
chain: MRKRQQSQNEGTPAVSQAPGNQRPNNTCCFCWCCCCSCSCLTVRNEERGENAGRPTHTTKMESIQVLEECQNPTAEEVLSWSQNFDKMMKAPAGRNLFREFLRTEYSEENLLFWLACEDLKKEQNKKVIEEKARMIYEDYISILSPKEVSLDSRVREVINRNLLDPNPHMYEDAQLQIYTLMHRDSFPRFLNSQIYKSFVESTAGSSSES

Variants of: B1
Settings: with gnao_rat Gnao1, P59215
gnao_rat Gnao1, P59215, sequence (P59215 whole entry): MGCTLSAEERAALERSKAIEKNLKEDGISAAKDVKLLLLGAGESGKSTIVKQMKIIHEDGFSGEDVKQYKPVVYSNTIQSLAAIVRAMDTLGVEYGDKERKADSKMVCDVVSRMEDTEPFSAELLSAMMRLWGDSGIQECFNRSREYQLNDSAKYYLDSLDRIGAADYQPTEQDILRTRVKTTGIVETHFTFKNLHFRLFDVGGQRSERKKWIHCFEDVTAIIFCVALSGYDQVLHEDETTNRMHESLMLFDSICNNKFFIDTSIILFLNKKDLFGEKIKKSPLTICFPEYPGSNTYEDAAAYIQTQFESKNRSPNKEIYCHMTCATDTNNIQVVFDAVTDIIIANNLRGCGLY

Row | effect of a mutation on the interaction | Variant
1 | decreasing interaction | MCRTLAAFPTTCLERAKEFKTRLGIFLHKSELGCDTGSTGKFEWGSKHSKENRNFSEDVLGWRESFDLLLSSKNGVAAFHAFLKTEFSEENLEFWLACEEFKKIRSATKLASRAHQIFEEFICSEAPKAVNIDHETHELTRMNLQTATATCFDAAQGKTRTLMEKDSYPRFLKSPAYRDLAAQASAASATLSSCSLDEPSHT [E129A]
2 | decreasing interaction | MCRTLAAFPTTCLERAKEFKTRLGIFLHKSELGCDTGSTGKFEWGSKHSKENRNFSEDVLGWRESFDLLLSSKNGVAAFHAFLKTEFSEENLEFWLACEEFKKIRSATKLASRAHQIFEEFICSAAPKAVNIDHETHELTRMNLQTATATCFDAAQGKTRTLMEKDSYPRFLASPAYRDLAAQASAASATLSSCSLDEPSHT [E125A;E129A;K173A]
3 | decreasing interaction | MCRTLAAFPTTCLERAKEFKTRLGIFLHKSELGCDTGSTGKFEWGSKHSKENRNFSEDVLGWRESFDLLLSSKNGVAAFHAFLKTEFSEENLEFWLACEEFKKIRSATKLASRAHQIFEEFICSAAPKAVNIDHETHELTRMNLQTATATCFDAAQGKTRTLMEKDSYPRFLKSPAYRDLAAQASAASATLSSCSLDEPSHT [E125A;E129A]
4 | decreasing interaction | MCRTLAAFPTTCLERAKEFKTRLGIFLHKSELGCDTGSTGKFEWGSKHSKENRNFSEDVLGWRESFDLLLSSKNGVAAFHAFLKTEFSEANLEFWLACEEFKKIRSATKLASRAHQIFEEFICSEAPKEVNIDHETHELTRMNLQTATATCFDAAQGKTRTLMEKDSYPRFLKSPAYRDLAAQASAASATLSSCSLDEPSHT [E90A]

Variants of: B2
Settings: with gnao_rat Gnao1, P59215

Row | effect of a mutation on the interaction | Variant
5 | increasing interaction | METTLLFFSQINMCESKEKTFFKLIHGSGKEETSKEAKIRAKEKRNRLSLLVQKPEFHEDTRSSRSGHLAKETRVSPEEAVKWGESFDKLLSHRDGLEAFTRFLKTEFSEENIEFWIACEDFKKSKGPQQIHLKAKAIYEEFIQTDAPKEVNLDFETREVITNSITQPTLHSFDAAQSRVYQLMEKDSYTRFLKSDIYLDLMEGRPQRPTNLRRRSRSFTCNEFQDVQSDVAIWL [K141E;H156E;K158R;Q186K]
6 | increasing interaction | METTLLFFSQINMCESKEKTFFKLIHGSGKEETSKEAKIRAKEKRNRLSLLVQKPEFHEDTRSSRSGHLAKETRVSPEEAVKWGESFDKLLSHRDGLEAFTRFLKTEFSEENIEFWIACEDFKKSKGPQQIHLKAKAIYEKFIQTDAPKEVNLDFHTKEVITNSITQPTLHSFDAAQSRVYQLMEKDSYTRFLKSDIYLDLMEGRPQRPTNLRRRSRSFTCNEFQDVQSDVAIWL [Q186K]
7 | increasing interaction | METTLLFFSQINMCESKEKTFFKLIHGSGKEETSKEAKIRAKEKRNRLSLLVQKPEFHEDTRSSRSGHLAKETRVSPEEAVKWGESFDKLLSHRDGLEAFTRFLKTEFSEENIEFWIACEDFKKSKGPQQIHLKAKAIYEEFIQTDAPKEVNLDFETREVITNSITQPTLHSFDAAQSRVYQLMEQDSYTRFLKSDIYLDLMEGRPQRPTNLRRRSRSFTCNEFQDVQSDVAIWL [K141E;H156E;K158R]
8 | increasing interaction | METTLLFFSQINMCESKEKTFFKLIHGSGKEETSKEAKIRAKEKRNRLSLLVQKPEFHEDTRSSRSGHLAKETRVSPEEAVKWGESFDKLLSHRDGLEAFTRFLKTEFSEENIEFWIACEDFKKSKGPQQIHLKAKAIYEKFIQTDAPKEVNLDFETREVITNSITQPTLHSFDAAQSRVYQLMEQDSYTRFLKSDIYLDLMEGRPQRPTNLRRRSRSFTCNEFQDVQSDVAIWL [H156E;K158R]

Variants of: B3
Settings: with gnao_rat Gnao1, P59215

Row | effect of a mutation on the interaction | Variant
9 | decreasing interaction | R134A;R166A
10 | disrupting interaction | E126A;R134A;R166A
11 | decreasing interaction | R134A
12 | disrupting interaction | N128S

Variants of: B4
Settings: with gnao_rat Gnao1, P59215

Row | effect of a mutation on the interaction | Variant
13 | increasing interaction | MRKRQQSQNEGTPAVSQAPGNQRPNNTCCFCWCCCCSCSCLTVRNEERGENAGRPTHTTKMESIQVLEECQNPTAEEVLSWSQNFDKMMKAPAGRNLFREFLRTEYSEENLLFWLACEDLKKEQNKKVIEEKARMIYEDYISSEAPKEVNLDSRVREVINRNLLDPNPHMYEDAQLQIYTLMEKDSFPRFLKSQIYKSFVESTAGSSSES [I143S;L144E;S145A;S150N;H183E;R184K;N192K]
14 | increasing interaction | MRKRQQSQNEGTPAVSQAPGNQRPNNTCCFCWCCCCSCSCLTVRNEERGENAGRPTHTTKMESIQVLEECQNPTAEEVLSWSQNFDKMMKAPAGRNLFREFLRTEYSEENLLFWLACEDLKKEQNKKVIEEKARMIYEDYISSEAPKEVNLDSRVREVINRNLLDPNPHMYEDAQLQIYTLMHRDSFPRFLKSQIYKSFVESTAGSSSES [I143S;L144E;S145A;S150N;N192K]
